In patent US20260098102A1 (NATIONAL UNIVERSITY CORPORATION KOBE UNIVERSITY, published 2026):
Where a chain is given by its changes, count along the chain named.

B1: humanized anti-SIRPA antibody hD13_H1L3 (antibody, human IgG4 S228P, kappa, F234A L235A, V domains shown)
VH: QVQLVESGGGVVQPGRSLRLSCAASGFTFSDYGMIWVRQAPGKGLEWVASISSSSSYIYYADSVKGRFTISRDNSKNRLYLQMNSLRAEDTAVYYCARRYYGFNYPFDYWGQGTMVTVSS
VL: DTQLTQSPSSLSASVGQRVTITCGASKSVRTYMHWYQQKPGKQPKLLIYSASNLEAGVPSRFSGSGSGTDFTLTISSLQPEDFATYYCQQSNEPPYTFGQGTKLEIKR
notes: hH1 heavy chain (IgG4proFALA) and hL3 kappa light chain; also called hD13_HIL3; HIL3 antibody
B2: humanized anti-SIRPA antibody hD13_H1L4 (antibody, human IgG4 S228P, kappa, F234A L235A, V domains shown)
VH: B1 VH
VL: DTVLTQSPDSLAVSLGQRATINCGASKSVRTYMHWYQQKPGQQPKLLIYSASNLEAGVPSRFSGSGSGTDFTLTISSLQAEDVAVYYCQQSNEPPYTFGQGTKVEIKR
notes: hH1 heavy chain (IgG4proFALA) and hL4 kappa light chain; also called hD13_HIL4; hD13_HIL4h
B3: humanized anti-SIRPA antibody hD13_H2L2 (antibody, human IgG4 S228P, kappa, F234A L235A, V domains shown)
VH: B1 VH with Q1E, R78T
VL: B1 VL with D1A, T2I, Q43A
notes: hH2 heavy chain (IgG4proFALA) and hL2 kappa light chain; also called H2L2 antibody
B4: humanized anti-SIRPA antibody hD13_H2L3 (antibody, human IgG4 S228P, kappa, F234A L235A, V domains shown)
VH: B1 VH with Q1E, R78T
VL: B1 VL
notes: hH2 heavy chain (IgG4proFALA) and hL3 kappa light chain; also called H2L3 antibody
B5: human chimeric anti-SIRPA antibody cD13 (antibody, human IgG4 S228P, kappa, F234A L235A, V domains shown)
VH: EVQLVESGGGLVQPGRSLKLSCLASGFTFSDYGMIWVRQAPGKGLEWVASISSSSSYIYYADTVKGRFTISRENAKNTLFLHMTSLRSEDTALYYCARRYYGFNYPFDYWGQGVMVTVSS
VL: DTVLTQSPALAVSLGQRVTISCGASKSVRTYMHWYQQKSGQQPKLLIYSASNLEAGVPSRFSGSGSGTDFTLTIDPVEADDIANYYCQQSNEPPYTFGAGTKLELKR
notes: Human IgG4proFALA heavy chain, human kappa light chain; also called cD13 (IgG4pf); human chimeric antibody D13

Target: T1, human SIRPA_V4 (human, UniProt P78324 31-504)
T1 construct: FLAG-tagged (pFLAG V5-DEST), on 293α cells; also called human SIRPA Variant 4
T1 chain: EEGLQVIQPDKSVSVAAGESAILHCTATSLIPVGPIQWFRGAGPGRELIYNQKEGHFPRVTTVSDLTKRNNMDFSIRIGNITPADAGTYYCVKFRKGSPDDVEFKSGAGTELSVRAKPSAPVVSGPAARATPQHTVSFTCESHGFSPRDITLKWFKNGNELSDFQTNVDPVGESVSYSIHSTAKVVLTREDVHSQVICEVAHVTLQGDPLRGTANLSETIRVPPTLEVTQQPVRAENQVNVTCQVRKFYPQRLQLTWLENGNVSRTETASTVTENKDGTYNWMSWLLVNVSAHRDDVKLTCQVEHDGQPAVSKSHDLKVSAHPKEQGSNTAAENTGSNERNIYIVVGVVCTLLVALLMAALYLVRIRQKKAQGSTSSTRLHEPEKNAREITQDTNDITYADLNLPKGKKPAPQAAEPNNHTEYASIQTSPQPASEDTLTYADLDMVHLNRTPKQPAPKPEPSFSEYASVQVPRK
Assay: cell-based ELISA on 293α cells expressing FLAG-tagged SIRPA_V4; Abs 490 normalized to FLAG tag [iv]
Method: (§1) The 293a cells, described in Example 1)-6, were prepared at 5× 10⁵ cells/mL in a 10% FBS-containing DMEM medium. pFLAG V5-DEST-SIRPA_V1-V10, pFLAG V5-DEST-monkey SIRPA, pFLAG V5-DEST-mouse SIRPA, or pFLAG V5-DEST was introduced into the cells using Lipofectamine LTX (Invitrogen), and 100 μL each was aliquoted to a 96-well plate (Corning Incorporated) and cultured overnight in a 10% FBS-containing DMEM medium at 37° C. under a 5% CO₂ condition. The obtained introduced cells were used for cell-based ELISA in a state that they adhered. After the culture supernatant was removed, 50 μL per well of hD13_HIL3, hD13_HIL4h, hD13_H2L2, hD13_H2L3, or cD13 prepared in Examples 6 and 7 or a control antibody was added to each of various SIRPA genes-introduced cells at a final concentration of 0 to 10,000 ng/ml, and the mixture was allowed to stand at 4° C. for one hour. Thereafter, binding to human SIRPA was evaluated in the same manner as in Example 5-1.

| Binder | EC50 (read off the curve) [ng/mL] |
| --- | --- |
| B1 | ~30 |
| B2 | ~40 |
| B3 | ~40 |
| B4 | ~40 |
| B5 | ~40 |

target: T2, human SIRPA_V6 (human, UniProt P78324 31-504); assay: cell-based ELISA on 293α cells expressing FLAG-tagged SIRPA_V6; Abs 490 normalized to FLAG tag [ii]
T2 construct: FLAG-tagged (pFLAG V5-DEST), on 293α cells; also called human SIRPA Variant 6
Method: as §1

T2 sequence (P78324 31-504 S105P limits assumed): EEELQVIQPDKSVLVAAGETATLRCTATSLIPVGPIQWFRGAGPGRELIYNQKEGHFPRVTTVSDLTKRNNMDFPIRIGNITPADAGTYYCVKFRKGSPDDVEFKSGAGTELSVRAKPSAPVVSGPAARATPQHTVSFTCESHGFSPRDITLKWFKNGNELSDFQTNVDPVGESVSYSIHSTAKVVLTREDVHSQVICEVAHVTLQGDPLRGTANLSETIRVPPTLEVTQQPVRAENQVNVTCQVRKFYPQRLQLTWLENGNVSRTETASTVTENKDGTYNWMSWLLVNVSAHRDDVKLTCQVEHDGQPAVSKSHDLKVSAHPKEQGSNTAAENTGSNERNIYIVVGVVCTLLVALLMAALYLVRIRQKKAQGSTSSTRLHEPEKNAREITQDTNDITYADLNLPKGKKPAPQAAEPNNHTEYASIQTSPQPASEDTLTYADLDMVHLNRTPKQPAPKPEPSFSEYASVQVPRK

| Binder | EC50 (read off the curve) [ng/mL] |
| --- | --- |
| B1 | ~40 |
| B2 | ~40 |
| B3 | ~40 |
| B4 | ~40 |
| B5 | ~40 |

target: T3, human SIRPA_V10 (human, UniProt P78324 31-504); assay: cell-based ELISA on 293α cells expressing FLAG-tagged SIRPA_V10; Abs 490 normalized to FLAG tag [ii]
T3 construct: FLAG-tagged (pFLAG V5-DEST), on 293α cells; also called human SIRPA Variant 10
Method: as §1

T3 sequence (P78324 other isoform, or with tags, fused parts or gaps limits assumed): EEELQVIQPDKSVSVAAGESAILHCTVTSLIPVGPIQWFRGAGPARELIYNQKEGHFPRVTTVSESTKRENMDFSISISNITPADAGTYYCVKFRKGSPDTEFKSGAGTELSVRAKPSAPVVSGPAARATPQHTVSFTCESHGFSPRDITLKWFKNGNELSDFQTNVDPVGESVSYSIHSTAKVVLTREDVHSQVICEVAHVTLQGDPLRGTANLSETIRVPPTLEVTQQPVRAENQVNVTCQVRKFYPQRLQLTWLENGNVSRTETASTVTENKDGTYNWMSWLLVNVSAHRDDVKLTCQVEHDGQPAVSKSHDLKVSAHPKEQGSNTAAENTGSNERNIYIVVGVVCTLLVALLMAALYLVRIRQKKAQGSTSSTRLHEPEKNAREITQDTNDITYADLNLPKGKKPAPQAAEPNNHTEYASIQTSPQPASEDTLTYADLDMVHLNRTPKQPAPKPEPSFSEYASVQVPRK

| Binder | EC50 (read off the curve) [ng/mL] |
| --- | --- |
| B1 | ~30 |
| B2 | ~30 |
| B3 | ~30 |
| B4 | ~30 |
| B5 | ~30 |

Target: T4, mouse SIRPA_NOD (mouse (NOD), UniProt P97797 32-513)
T4 construct: FLAG-tagged (pFLAG V5-DEST), on 293α cells; also called NOD SCID
T4 chain: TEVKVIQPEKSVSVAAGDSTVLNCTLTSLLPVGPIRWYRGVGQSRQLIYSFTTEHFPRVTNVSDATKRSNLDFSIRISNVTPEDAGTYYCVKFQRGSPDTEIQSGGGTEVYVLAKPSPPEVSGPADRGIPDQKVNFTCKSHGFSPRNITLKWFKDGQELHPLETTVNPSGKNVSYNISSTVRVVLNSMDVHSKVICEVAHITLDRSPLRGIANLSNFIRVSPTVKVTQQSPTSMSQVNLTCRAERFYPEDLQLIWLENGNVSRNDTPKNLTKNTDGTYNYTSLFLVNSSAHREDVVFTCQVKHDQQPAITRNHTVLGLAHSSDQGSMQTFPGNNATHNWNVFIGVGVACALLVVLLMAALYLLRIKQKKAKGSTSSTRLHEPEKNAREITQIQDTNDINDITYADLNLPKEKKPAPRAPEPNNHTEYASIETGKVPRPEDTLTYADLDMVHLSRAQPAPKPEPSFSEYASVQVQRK
Assay: cell-based ELISA on 293α cells expressing FLAG-tagged mouse SIRPA (NOD); Abs 490 normalized to FLAG tag [i]
Method: as §1

| Binder | binding result |
| --- | --- |
| B1 | no binding (tested: 10000 ng/mL) |
| B2 | no binding (tested: 10000 ng/mL) |
| B3 | no binding (tested: 10000 ng/mL) |
| B4 | no binding (tested: 10000 ng/mL) |
| B5 | no binding (tested: 10000 ng/mL) |

Target: T5, mouse SIRPA BALB/c (mouse (BALB/c), UniProt P97797 35-513)
T5 construct: FLAG-tagged (pFLAG V5-DEST), on 293α cells
T5 chain: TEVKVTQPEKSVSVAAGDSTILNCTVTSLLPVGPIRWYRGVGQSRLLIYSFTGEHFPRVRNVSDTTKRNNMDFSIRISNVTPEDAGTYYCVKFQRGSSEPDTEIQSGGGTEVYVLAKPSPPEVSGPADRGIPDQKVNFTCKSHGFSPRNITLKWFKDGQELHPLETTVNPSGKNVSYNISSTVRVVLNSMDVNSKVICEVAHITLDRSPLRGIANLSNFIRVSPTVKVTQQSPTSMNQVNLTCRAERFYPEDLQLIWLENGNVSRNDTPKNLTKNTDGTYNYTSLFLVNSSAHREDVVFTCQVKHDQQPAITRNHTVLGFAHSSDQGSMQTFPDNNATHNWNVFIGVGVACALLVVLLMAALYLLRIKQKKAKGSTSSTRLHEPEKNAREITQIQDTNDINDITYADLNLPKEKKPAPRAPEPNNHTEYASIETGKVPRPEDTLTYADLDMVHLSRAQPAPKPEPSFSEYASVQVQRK
Assay: cell-based ELISA on 293α cells expressing FLAG-tagged mouse SIRPA (BALB/c); Abs 490 normalized to FLAG tag [ii]
Method: as §1

| Binder | binding result |
| --- | --- |
| B1 | no binding (tested: 10000 ng/mL) |
| B2 | no binding (tested: 10000 ng/mL) |
| B3 | no binding (tested: 10000 ng/mL) |
| B4 | no binding (tested: 10000 ng/mL) |
| B5 | no binding (tested: 10000 ng/mL) |
